Source: patent US10155934B2, “Cytochrome P450 polypeptide with increased enzyme activity” (SANOFI, priority 2014, dated 2018)

How the values were obtained:
cholesterol [1] = experiment: In vitro conversion assay of cholesterol by purified CYP11A1 variants with Adx and AdR; assay type: biochemical; conditions: 20 μM cholesterol, saturating Adx and AdR; for activity, SA4 compared with SA6 (in vitro conversion of cholesterol): 1 μM enzyme
Experimental: For in vitro enzyme assays, 150 mM of HEPES buffer, adjusted to pH 7.4, containing 0.05% Tween-20 and 1 mM MgCl2, were applied as reaction buffer. 1 unit of glucose-6-phosphate dehydrogenase, with 5 mM glucose-6-phosphate as substrate, served as a NADPH-regenerating system.
For WT P450scc (noted “SA4”, SEQ ID NO: 4) and P450scc-I1A-K193E (noted “SA6”, SEQ ID NO: 6) the concentrations of CYP11A1, Adx and AdR were of 1 μM, 20 μM and 0.5 μM, and for P450scc-R225T-N289D (noted “SA1”, SEQ ID NO: 1) the concentrations of CYP11A1, Adx and AdR were of 0.25 μM, 5 μM and 0.125 μM, respectively.
The samples were pre-warmed to 37° C. and the reaction was started by addition of NADPH to a final concentration of 100 μM. The mixtures were incubated at 37° C. with agitation for 30 s. The reaction was stopped by boiling the samples in water for 30 s.
To allow photometric detection at 240 nm, the steroids were converted into their 3-keto-Δ4 derivatives using a cholesterol oxidase from Nocardia spec.
20 μl of a cholesterol oxidase solution (5 mg cholesterol oxidase and 5 mg Na-cholate dissolved in 5 ml of 50 mM HEPES buffer pH 7, containing 0.05% Tween-20) were added to the samples. After incubation at 37° C. for 1 h, 11-deoxycorticosterone (DOC) was added to the reaction mixtures as an internal standard, followed by a 2-times extraction with equal volumes of ethylacetate. After evaporation, the extracts were dissolved in acetonitrile/water.
After acute evaluation of the concentration of each P450scc preparation, SA1, SA4 and SA6 were used in the following in vitro assays. Each of these isoforms was reconstituted at a concentration of 1 μM in the presence of cholesterol as a substrate (20 μM) in saturating amounts of Adx and AdR.

cholesterol [2] = experiment: In vivo conversion of cholesterol into pregnenolone by recombinant Bacillus megaterium expressing the P450scc polypeptide; assay type: cell-based; conditions: 300 μM cholesterol, Bacillus megaterium MS941, assessed after 24 h and 48 h (FIGS. 3 and 4)

Molecule	activity compared to SA4 and SA6 (in vitro conversion of cholesterol) (cholesterol [1]; 37° C., 30 s, HPLC (FIG. 1))	in vivo cholesterol conversion activity compared to SA6 (cholesterol [2]) [fold]	activity, SA4 compared with SA6 (in vitro conversion of cholesterol) (cholesterol [1])
SA1: CYP11A1 comprising a threonine at position 225 and an aspartic acid at position 289 (protein, Mutated amino acid sequence of CYP11A1) ISTKTPRPYSEIPSPGDNGWLNLYHFWREKGSQRIHFRHIENFQKYGPIYREKLGNLESVYIIHPEDVAHLFKFEGSYPERYDIPPWLAYHRYYQKPIGVLFKKSGTWKKDRVVLNTEVMAPEAIKNFIPLLNPVSQDFVSLLHKRIKQQGSGKFVGDIKEDLFHFAFESITNVMFGERLGMLEETVNPEAQKFIDAVYKMFHTSVPLLNVPPELYRLFRTKTWTDHVAAWDTIFNKAEKYTEIFYQDLRRKTEFRNYPGILYCLLKSEKMLLEDVKANITEMLAGGVDTTSMTLQWHLYEMARSLNVQEMLREEVLNARRQAEGDISKMLQMVPLLKASIKETLRLHPISVTLQRYPESDLVLQDYLIPAKTLVQVAIYAMGRDPAFFSSPDKFDPTRWLSKDKDLIHFRNLGFGWGVRQCVGRRIAELEMTLFLIHILENFKVEMQHIGDVDTIFNLILTPDKPIFLVFRPFNQDPPQA	2-3 fold	2	
SA4: WT Bos taurus CYP11A1, mature form, wild-type control (protein, listed as Bos taurus) ISTKTPRPYSEIPSPGDNGWLNLYHFWREKGSQRIHFRHIENFQKYGPIYREKLGNLESVYIIHPEDVAHLFKFEGSYPERYDIPPWLAYHRYYQKPIGVLFKKSGTWKKDRVVLNTEVMAPEAIKNFIPLLNPVSQDFVSLLHKRIKQQGSGKFVGDIKEDLFHFAFESITNVMFGERLGMLEETVNPEAQKFIDAVYKMFHTSVPLLNVPPELYRLFRTKTWRDHVAAWDTIFNKAEKYTEIFYQDLRRKTEFRNYPGILYCLLKSEKMLLEDVKANITEMLAGGVNTTSMTLQWHLYEMARSLNVQEMLREEVLNARRQAEGDISKMLQMVPLLKASIKETLRLHPISVTLQRYPESDLVLQDYLIPAKTLVQVAIYAMGRDPAFFSSPDKFDPTRWLSKDKDLIHFRNLGFGWGVRQCVGRRIAELEMTLFLIHILENFKVEMQHIGDVDTIFNLILTPDKPIFLVFRPFNQDPPQA			identical activity
SA6: P450scc-I1A-K193E polypeptide, control (protein, Mutated amino acid sequence of CYP11A1, P450scc-I1A-K193E polypeptide, control) ASTKTPRPYSEIPSPGDNGWLNLYHFWREKGSQRIHFRHIENFQKYGPIYREKLGNLESVYIIHPEDVAHLFKFEGSYPERYDIPPWLAYHRYYQKPIGVLFKKSGTWKKDRVVLNTEVMAPEAIKNFIPLLNPVSQDFVSLLHKRIKQQGSGEFVGDIKEDLFHFAFESITNVMFGERLGMLEETVNPEAQKFIDAVYKMFHTSVPLLNVPPELYRLFRTKTWRDHVAAWDTIFNKAEKYTEIFYQDLRRKTEFRNYPGILYCLLKSEKMLLEDVKANITEMLAGGVNTTSMTLQWHLYEMARSLNVQEMLREEVLNARRQAEGDISKMLQMVPLLKASIKETLRLHPISVTLQRYPESDLVLQDYLIPAKTLVQVAIYAMGRDPAFFSSPDKFDPTRWLSKDKDLIHFRNLGFGWGVRQCVGRRIAELEMTLFLIHILENFKVEMQHIGDVDTIFNLILTPDKPIFLVFRPFNQDPPQA			identical activity
